{"source": "patent US20250002945", "about": "“NEW TALE PROTEIN SCAFFOLDS WITH IMPROVED ON-TARGET/OFF-TARGET ACTIVITY RATIOS” (CELLECTIS SA, published 2025)", "binders": {"B1": {"name": "CD38 (2) right half-site (dsDNA)", "DNA 1": "CCGGTGTCCGGGGACAA", "DNA 2": "TTGTCCCCGGACACCGG"}, "B2": {"name": "IgH (1) right half-site (dsDNA)", "DNA 1": "AGCTCAGCTAAGAAATA", "DNA 2": "TATTTCTTAGCTGAGCT"}, "B3": {"name": "CD38 (1) right half-site (dsDNA)", "DNA 1": "AAGTACACTGAAATTCA", "DNA 2": "TGAATTTCAGTGTACTT"}, "B4": {"name": "CD38 (2) left half-site (dsDNA)", "DNA 1": "TGGAGCCCTATGGCCAA", "DNA 2": "TTGGCCATAGGGCTCCA"}, "B5": {"name": "IgH (1) left half-site (dsDNA)", "DNA 1": "TGATATGTGTCTGGAAT", "DNA 2": "ATTCCAGACACATATCA"}, "B6": {"name": "CISH (3) right half-site (dsDNA)", "DNA 1": "GAGGGTACCCCAGCCCA", "DNA 2": "TGGGCTGGGGTACCCTC"}, "B7": {"name": "CD38 (1) left half-site (dsDNA)", "DNA 1": "TTTCCCGAGACCGTCCT", "DNA 2": "AGGACGGTCTCGGGAAA"}}, "experiment_in_all_cases": "cell_activity; T cells, mostly above 70%", "conditions_in_all_cases": "tags: SV40 NLS; FokI fusion", "key": {"[1]": {"target": "T1, CD38 (2) right V2 TALEN (synthetic, UniProt Q56830 SEQ:15-719)", "T1 chain": "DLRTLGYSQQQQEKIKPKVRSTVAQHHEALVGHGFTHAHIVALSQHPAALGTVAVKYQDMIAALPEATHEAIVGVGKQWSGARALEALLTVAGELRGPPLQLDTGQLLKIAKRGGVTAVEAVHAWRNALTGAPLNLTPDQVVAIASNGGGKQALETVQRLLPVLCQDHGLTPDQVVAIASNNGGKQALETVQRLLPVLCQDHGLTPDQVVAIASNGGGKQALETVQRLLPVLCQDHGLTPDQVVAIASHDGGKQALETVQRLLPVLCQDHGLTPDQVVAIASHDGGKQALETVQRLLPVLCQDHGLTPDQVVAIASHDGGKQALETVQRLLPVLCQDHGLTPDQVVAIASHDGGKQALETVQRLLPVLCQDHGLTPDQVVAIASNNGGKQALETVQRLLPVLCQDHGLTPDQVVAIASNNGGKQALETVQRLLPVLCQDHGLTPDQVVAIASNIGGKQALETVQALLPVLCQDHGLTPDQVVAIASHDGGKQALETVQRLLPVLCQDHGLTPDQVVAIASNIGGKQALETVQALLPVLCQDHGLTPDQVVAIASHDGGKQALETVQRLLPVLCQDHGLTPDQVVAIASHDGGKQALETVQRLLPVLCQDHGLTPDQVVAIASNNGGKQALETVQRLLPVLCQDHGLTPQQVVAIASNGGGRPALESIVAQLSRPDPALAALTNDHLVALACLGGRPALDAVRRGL"}, "[2]": {"target": "T2, IgH (1) right V2 TALEN (synthetic, UniProt Q56830 SEQ:15-719)", "T2 chain": "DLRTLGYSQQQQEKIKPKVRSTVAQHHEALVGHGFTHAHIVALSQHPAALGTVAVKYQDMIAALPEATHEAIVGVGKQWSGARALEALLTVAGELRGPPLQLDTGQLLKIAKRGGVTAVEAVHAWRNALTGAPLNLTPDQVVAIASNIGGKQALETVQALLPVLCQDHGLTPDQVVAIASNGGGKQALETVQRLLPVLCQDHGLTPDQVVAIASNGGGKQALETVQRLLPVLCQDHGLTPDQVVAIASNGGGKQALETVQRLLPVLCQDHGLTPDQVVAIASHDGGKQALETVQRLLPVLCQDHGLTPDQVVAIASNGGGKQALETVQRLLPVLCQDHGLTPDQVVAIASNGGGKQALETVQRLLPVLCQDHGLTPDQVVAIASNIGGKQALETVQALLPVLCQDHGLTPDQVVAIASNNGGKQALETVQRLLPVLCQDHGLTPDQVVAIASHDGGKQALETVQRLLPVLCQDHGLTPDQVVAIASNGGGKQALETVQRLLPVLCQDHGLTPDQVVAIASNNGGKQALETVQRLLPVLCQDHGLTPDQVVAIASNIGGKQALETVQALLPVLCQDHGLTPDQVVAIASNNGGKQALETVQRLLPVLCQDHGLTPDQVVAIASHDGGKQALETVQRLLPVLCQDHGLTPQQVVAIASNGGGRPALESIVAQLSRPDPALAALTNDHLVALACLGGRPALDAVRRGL"}, "[3]": {"target": "T3, CD38 (1) right V2 TALEN (synthetic, UniProt Q56830 SEQ:15-719)", "T3 chain": "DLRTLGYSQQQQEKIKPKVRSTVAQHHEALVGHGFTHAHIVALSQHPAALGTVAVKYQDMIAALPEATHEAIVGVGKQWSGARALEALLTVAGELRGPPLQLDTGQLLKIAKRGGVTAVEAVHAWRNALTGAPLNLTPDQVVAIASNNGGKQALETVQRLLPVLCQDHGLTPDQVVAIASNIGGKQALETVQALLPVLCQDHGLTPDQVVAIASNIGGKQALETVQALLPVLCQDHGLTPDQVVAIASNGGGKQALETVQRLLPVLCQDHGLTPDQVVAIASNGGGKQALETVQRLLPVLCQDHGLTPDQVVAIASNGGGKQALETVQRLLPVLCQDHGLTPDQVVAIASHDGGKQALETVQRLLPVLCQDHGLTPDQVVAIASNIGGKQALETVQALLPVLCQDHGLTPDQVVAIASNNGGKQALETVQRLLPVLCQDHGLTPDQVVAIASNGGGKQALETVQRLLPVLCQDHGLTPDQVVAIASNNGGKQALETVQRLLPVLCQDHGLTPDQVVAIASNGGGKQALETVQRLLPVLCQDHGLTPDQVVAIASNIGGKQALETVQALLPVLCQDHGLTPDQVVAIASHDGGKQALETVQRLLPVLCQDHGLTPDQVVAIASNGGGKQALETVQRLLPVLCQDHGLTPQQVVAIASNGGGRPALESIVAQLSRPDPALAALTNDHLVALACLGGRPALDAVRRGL"}, "[4]": {"target": "T4, CD38 (2) left V2 TALEN (synthetic, UniProt Q56830 SEQ:15-719)", "T4 chain": "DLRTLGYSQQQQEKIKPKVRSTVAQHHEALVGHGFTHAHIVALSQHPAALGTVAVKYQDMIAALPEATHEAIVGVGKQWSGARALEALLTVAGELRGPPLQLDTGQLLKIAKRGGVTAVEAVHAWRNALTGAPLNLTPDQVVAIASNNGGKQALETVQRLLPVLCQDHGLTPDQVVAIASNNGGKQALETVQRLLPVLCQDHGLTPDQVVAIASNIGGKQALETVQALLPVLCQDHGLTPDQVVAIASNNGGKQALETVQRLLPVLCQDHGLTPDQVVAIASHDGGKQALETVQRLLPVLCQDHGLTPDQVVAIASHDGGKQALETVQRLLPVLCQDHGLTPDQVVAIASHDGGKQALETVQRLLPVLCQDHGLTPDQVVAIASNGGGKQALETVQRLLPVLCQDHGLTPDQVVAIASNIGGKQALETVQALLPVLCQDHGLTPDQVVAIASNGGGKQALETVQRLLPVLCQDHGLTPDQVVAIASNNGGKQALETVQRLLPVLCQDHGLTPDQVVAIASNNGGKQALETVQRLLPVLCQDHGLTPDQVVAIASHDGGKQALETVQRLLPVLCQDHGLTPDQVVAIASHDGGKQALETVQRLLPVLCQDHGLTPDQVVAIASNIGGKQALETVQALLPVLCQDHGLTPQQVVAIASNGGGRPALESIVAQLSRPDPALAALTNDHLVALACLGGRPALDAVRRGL"}, "[5]": {"target": "T5, IgH (1) left V2 TALEN (synthetic, UniProt Q56830 SEQ:15-719)", "T5 chain": "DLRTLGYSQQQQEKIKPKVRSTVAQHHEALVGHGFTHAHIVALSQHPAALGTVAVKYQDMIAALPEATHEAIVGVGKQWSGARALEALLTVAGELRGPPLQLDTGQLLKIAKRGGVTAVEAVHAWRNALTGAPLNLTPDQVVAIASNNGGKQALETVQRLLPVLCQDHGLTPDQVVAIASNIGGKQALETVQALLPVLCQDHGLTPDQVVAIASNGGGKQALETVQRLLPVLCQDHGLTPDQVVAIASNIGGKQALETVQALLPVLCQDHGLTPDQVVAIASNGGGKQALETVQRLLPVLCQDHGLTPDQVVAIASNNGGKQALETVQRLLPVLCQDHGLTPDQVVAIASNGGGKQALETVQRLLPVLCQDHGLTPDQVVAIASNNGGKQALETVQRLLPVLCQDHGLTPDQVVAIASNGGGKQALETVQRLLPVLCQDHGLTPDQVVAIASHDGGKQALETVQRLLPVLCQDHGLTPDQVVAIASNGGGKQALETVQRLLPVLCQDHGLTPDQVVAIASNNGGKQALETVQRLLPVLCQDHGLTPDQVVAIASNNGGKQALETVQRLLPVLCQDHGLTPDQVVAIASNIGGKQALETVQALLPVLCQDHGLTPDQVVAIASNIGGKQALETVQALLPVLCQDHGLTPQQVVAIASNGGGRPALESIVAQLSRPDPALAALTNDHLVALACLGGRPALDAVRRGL"}, "[6]": {"target": "T6, CISH (3) right V2 TALEN (synthetic, UniProt Q56830 SEQ:15-719)", "T6 chain": "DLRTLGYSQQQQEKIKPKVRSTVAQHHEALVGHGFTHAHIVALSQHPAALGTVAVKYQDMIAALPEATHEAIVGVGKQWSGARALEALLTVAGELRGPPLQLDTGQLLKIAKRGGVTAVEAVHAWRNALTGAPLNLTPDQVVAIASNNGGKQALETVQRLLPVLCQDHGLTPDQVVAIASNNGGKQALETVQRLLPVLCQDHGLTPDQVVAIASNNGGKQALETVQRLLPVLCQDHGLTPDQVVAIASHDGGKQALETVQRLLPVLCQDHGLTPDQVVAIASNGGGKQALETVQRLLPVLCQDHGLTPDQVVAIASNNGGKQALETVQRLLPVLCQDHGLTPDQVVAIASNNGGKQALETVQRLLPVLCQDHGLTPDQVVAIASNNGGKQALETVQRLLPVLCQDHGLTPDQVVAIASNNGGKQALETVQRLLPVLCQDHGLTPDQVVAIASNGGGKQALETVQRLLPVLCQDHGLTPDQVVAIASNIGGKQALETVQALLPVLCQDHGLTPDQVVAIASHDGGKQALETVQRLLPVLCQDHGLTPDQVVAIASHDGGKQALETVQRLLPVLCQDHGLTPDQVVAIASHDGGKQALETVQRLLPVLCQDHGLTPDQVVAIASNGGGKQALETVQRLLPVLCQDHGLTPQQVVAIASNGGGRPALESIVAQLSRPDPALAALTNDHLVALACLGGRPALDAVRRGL"}, "[7]": {"target": "T7, CD38 (1) left V2 TALEN (synthetic, UniProt Q56830 SEQ:15-719)", "T7 chain": "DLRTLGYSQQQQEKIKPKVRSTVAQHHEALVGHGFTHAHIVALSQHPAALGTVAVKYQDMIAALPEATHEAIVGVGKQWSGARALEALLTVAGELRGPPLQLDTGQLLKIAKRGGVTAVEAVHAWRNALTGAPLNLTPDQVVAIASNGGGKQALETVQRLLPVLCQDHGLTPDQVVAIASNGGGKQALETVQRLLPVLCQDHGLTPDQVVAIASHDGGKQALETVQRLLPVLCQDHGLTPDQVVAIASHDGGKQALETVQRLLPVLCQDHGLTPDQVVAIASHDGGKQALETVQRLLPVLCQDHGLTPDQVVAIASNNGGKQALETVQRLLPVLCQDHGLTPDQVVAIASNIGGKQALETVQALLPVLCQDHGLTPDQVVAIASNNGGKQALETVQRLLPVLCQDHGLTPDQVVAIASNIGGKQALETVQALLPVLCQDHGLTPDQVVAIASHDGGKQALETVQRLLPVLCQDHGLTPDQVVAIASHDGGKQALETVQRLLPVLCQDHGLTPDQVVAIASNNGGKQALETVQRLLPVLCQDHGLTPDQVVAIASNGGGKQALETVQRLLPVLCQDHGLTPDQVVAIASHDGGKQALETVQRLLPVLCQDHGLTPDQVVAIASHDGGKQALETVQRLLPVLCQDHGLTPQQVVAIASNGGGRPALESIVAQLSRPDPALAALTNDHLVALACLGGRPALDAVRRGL"}}, "data": [{"binder": "B1", "values": [{"measurement": "activity", "setting": "[1]", "result": "> 50", "unit": "% indels"}]}, {"binder": "B2", "values": [{"measurement": "activity", "setting": "[2]", "result": "> 50", "unit": "% indels"}]}, {"binder": "B3", "values": [{"measurement": "activity", "setting": "[3]", "result": "> 50", "unit": "% indels"}]}, {"binder": "B4", "values": [{"measurement": "activity", "setting": "[4]", "result": "> 50", "unit": "% indels"}]}, {"binder": "B5", "values": [{"measurement": "activity", "setting": "[5]", "result": "> 50", "unit": "% indels"}]}, {"binder": "B6", "values": [{"measurement": "activity", "setting": "[6]", "result": "> 50", "unit": "% indels"}]}, {"binder": "B7", "values": [{"measurement": "activity", "setting": "[7]", "result": "> 50", "unit": "% indels"}]}]}
